This is an account of results in patent US20230346919A1.

The target in this test is SARS-CoV-2 spike SΔ21 displayed on VSV-eGFP-SARS-CoV-2-SΔ21 particles (SARS-CoV-2 isolate Wuhan-Hu-1) (UniProt P0DTC2). The experiment in a line: cell-based or functional assay.

Turning to mAb S309 (antibody), the EC50, neutralization of VSV-SARS-CoV-2-SΔ21 (GRNT, Vero E6 cells) was determined as 0.067 µg/mL.
